Test system: mir-675-5p
Assay: TaqMan QRT-PCR of mature mir-675-5p from transfected constructs in HEK293 cells
Format: cell-based, human
Description: RNA Extraction. RNA from HEK293 cells was extracted for Northern blot assay and QPCR. The miRVANA miRNA isolation kit (ThermoFisher Scientific) was used according to manufacturer's directions to extract total RNA encompassing small RNAs, such as miRNAs. To extract RNA from C57BL/6 skeletal muscles, cryopreserved muscles were crushed under suboptimal temperatures using liquid nitrogen and using mortar and pestle. Crushed muscles were then lysed using […] of miRVANA miRNA isolation kit lysis buffer, a TissueLyser and 1.0 mm zirconia beads (Biospec). Muscle was homogenized at 30 Hz for 30 sec with 10 sec rest. This was repeated 3 times.
TaqMan Gene Expression Assay. QRT-PCR was carried out to quantify the expression of pri-mir-675, mir-675-5p and mi405 using TaqMan probes (ThermoFisher Scientific). Experiments were started by eliminating genomic DNA from the RNA preparations, and then cDNA was generated using the High-Capacity cDNA Reverse Transcription Kit (Applied Biosystems) following manufacturer's instructions. Within the same cDNA reaction, 1×RT random hexamer primers were used to generate the cDNA for RPL13A, used as a reference gene, and for pri-mir-675. To generate the cDNA for mir-675, the RT mir-675 reverse primer provided by ThermoFisher Scientific was used. For mi405, the mi405 qPCR protocol was done as it was previously described [Wallace et al., Mol. Ther. Methods Clin. Dev. 8: 121-30 (2018)]. To quantify mir-675 and mi405 levels, RNA was extracted using the total RNA protocol for the mirVana miRNA Isolation Kit (Ambion) from HEK293 cells. cDNA was generated using the High-Capacity cDNA Reverse Transcription Kit (Applied Biosystems) using a mix of random hexamer primers and specific reverse primer for pri-mir-675 and mir-675-5p. For mi405, 200 nM of the stem-loop forming primer (5′-[…]-3′) (SEQ ID NO: 144) was also used for the RT step. A custom TaqMan assay (Applied Biosystems) including 1.5 μM of Forward primer (5′-[…]-3′) (SEQ ID NO: 145), 0.7 μM of Reverse primer (5′-GTGCAGGGTCCGAGGT-3′) (SEQ ID NO: 146), and 0.2 μM of mi405 probe (5′-6FAM-ATACGACGTCCAGGAT-3′) (SEQ ID NO: 147) was then run using the CFX Connect Real Time system apparatus (Bio-Rad). RPL13A (Mm02526700_g1; Applied Biosystems) served as the reference gene. The TaqMan gene expression assay consisted of using the TaqMan Gene Expression Master mix and TaqMan probes purchased from ThermoFisher Scientific. 1× of probe was mixed with 1× of the TaqMan Gene Expression Master mix (ThermoFisher Scientific), and with 20 ng of cDNA. The mir-675- and mi405-specific primers and probes were designed to quantify only the mir-675-5p and mi405 mature sequence (see TaqMan Gene Expression Master mix protocol).

B1: H1.mir-675: commercially available H1 promoter mir-675 expression plasmid (SBI Biosciences) (nucleic acid)
DNA: GAACGCTGACGTCATCAACCCGCTCCAAGGAATCGCGGGCCCAGTGTCACTAGGCGGGAACACCCAGCGCGCGTGCGCCCTGGCAGGAAGATGGCTGTGAGGGACAGGGGAGTGGCGCCCTGCAATATTTGCATGTCGCTATGTGTTCTGGGAAATCACCATAAACGTGAAATGTCTTTGGATTTGGGAATCTTATAAGTTCTGTATGAGACCACCCCCCAGGGTCTGGTGCGGAGAGGGCCCACAGTGGACTTGGTGACGCTGTATGCCCTCACCGCTCAGCCCCTGGGGAATTCTTCGATTCTGCTTTTTT
mir-675-5p levels compared to U6.mir-675 (23 mer mature mir-675-5p, HEK293, 24 h post-transfection): 232±35%
mir-675-5p overexpressed levels compared to milacZ sample (HEK293 co-transfected with CMV.DUX4-FL/CMV.eGFP): ~2000 fold

Reference: US20240093191A1, “COMPOSITIONS AND METHODS FOR TREATING DISEASE ASSOCIATED WITH DUX4 OVEREXPRESSION” (RESEARCH INSTITUTE AT NATIONWIDE CHILDREN'S HOSPITAL, priority 2021, published 2024)
